This is an account of results in IntAct's records for PubMed 34502139.

B1: Mitochondrial import receptor subunit TOM70 (Homo sapiens), O94826 (parent)
chain: MAASKPVEAAVVAAAVPSSGSGVGGGGTAGPGTGGLPRWQLALAVGAPLLLGAGAIYLWSRQQRRREARGRGDASGLKRNSERKTPEGRASPAPGSGHPEGPGAHLDMNSLDRAQAAKNKGNKYFKAGKYEQAIQCYTEAISLCPTEKNVDLSTFYQNRAAAFEQLQKWKEVAQDCTKAVELNPKYVKALFRRAKAHEKLDNKKECLEDVTAVCILEGFQNQQSMLLADKVLKLLGKEKAKEKYKNREPLMPSPQFIKSYFSSFTDDIISQPMLKGEKSDEDKDKEGEALEVKENSGYLKAKQYMEEENYDKIISECSKEIDAEGKYMAEALLLRATFYLLIGNANAAKPDLDKVISLKEANVKLRANALIKRGSMYMQQQQPLLSTQDFNMAADIDPQNADVYHHRGQLKILLDQVEEAVADFDECIRLRPESALAQAQKCFALYRQAYTGNNSSQIQAAMKGFEEVIKKFPRCAEGYALYAQALTDQQQFGKADEMYDKCIDLEPDNATTYVHKGLLQLQWKQDLDRGLELISKAIEIDNKCDFAYETMGTIEVQRGNMEKAIDMFNKAINLAKSEMEMAHLYSLCDAAHAQTEVAKKYGLKPPTL
B2: Mitochondrial import receptor subunit TOM70 (Homo sapiens), O94826 (parent)
chain: B1 chain
partner: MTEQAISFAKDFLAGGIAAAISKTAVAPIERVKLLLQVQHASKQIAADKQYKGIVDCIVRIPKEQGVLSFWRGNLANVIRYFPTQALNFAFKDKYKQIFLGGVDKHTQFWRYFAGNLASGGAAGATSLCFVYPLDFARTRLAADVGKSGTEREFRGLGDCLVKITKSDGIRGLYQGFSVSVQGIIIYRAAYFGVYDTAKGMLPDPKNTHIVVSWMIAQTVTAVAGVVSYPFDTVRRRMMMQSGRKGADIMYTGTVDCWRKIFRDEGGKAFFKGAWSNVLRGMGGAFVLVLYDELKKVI

One test covers variants of B1. The note with it: with hs90b_human HSP90AB1, P08238.
Chain of hs90b_human HSP90AB1, P08238 (P08238 whole entry): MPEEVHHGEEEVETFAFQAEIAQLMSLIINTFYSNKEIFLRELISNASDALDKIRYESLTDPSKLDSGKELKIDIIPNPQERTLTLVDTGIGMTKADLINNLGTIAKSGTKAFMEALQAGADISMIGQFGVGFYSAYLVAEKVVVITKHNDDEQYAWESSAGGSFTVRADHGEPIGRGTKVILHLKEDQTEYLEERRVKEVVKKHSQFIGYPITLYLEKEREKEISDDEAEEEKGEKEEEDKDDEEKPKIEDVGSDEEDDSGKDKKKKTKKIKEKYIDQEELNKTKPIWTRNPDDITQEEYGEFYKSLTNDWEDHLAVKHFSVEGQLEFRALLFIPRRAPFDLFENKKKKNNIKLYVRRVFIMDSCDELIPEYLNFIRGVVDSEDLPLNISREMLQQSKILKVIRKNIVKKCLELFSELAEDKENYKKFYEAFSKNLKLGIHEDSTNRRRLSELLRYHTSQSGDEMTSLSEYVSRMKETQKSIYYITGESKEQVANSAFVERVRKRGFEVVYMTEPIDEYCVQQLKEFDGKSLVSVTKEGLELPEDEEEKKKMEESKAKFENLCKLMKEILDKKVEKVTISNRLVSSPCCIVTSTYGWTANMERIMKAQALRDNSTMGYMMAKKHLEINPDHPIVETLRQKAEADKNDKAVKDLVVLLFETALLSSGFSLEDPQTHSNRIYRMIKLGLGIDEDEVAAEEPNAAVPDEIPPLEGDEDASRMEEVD
As to R192A, the “effect of a mutation on the interaction” value was “decreasing interaction strength”.
Still for that read-out and setting: as for E477A, the entry is “decreasing interaction strength”.

Variants of B2 are the subject of the next test. The note with it: with adt3_human SLC25A6, P12236.
As to E477A, the “effect of a mutation on the interaction” value is “decreasing interaction strength”.
